Tests used:
Test in all cases: affinity purification with mass spectrometry; purified GST-VHH fusion protein as bait with lysate of immature chicken bone marrow DCs (day 6); in vitro pull-down, then HPLC-MS (done by ZoonBio Biotechnology)
Conditions in all cases: one partner purified
[1] = molecular target: T1, E3 ubiquitin-protein ligase TRIM71 (Gallus gallus (SPF chick), UniProt Q1PRL4)
T1 construct: E3 ubiquitin-protein ligase TRIM71, Gallus gallus, GN = TRIM71; source: endogenous, chicken bone marrow DC lysate

[2] = molecular target: T2, SET domain-containing protein (Gallus gallus, UniProt A0A1D5PNH9)
T2 construct: SET domain-containing protein, Gallus gallus, GN = PRDM11; also called PRDM11; source: endogenous, chicken bone marrow DC lysate

[3] = molecular target: T3, Calreticulin (Gallus gallus, UniProt A0A8V0X980)
T3 construct: Calreticulin, Gallus gallus, GN = CALR; source: endogenous, chicken bone marrow DC lysate

[4] = molecular target: T4, Uncharacterized protein GN = LCP1 (Gallus gallus (SPF chick), UniProt Q5ZLW0)
T4 construct: Uncharacterized protein, Gallus gallus, GN = LCP1; source: endogenous, chicken bone marrow DC lysate

[5] = molecular target: T5, Protein disulfide-isomerase (Gallus gallus (SPF chick), UniProt P09102)
T5 construct: Protein disulfide-isomerase, Gallus gallus, GN = P4HB; also called P4HB; source: endogenous, chicken bone marrow DC lysate

[6] = molecular target: T6, Glutathione S-transferase (Gallus gallus (SPF chick), UniProt Q08392)
T6 construct: Glutathione S-transferase, Gallus gallus; no gene name printed; source: endogenous, chicken bone marrow DC lysate

[7] = molecular target: T7, BTB domain-containing protein (Gallus gallus, UniProt A0A1D5NYT7)
T7 construct: BTB domain-containing protein, Gallus gallus, GN = KLHL26; also called KLHL26; source: endogenous, chicken bone marrow DC lysate

[8] = molecular target: T8, Uncharacterized protein GN = ERCC5 (Gallus gallus (SPF chick), UniProt F1P266)
T8 construct: Uncharacterized protein, Gallus gallus, GN = ERCC5; source: endogenous, chicken bone marrow DC lysate

[9] = molecular target: T9, Uncharacterized protein GN = ZBTB26 (Gallus gallus, UniProt A0A1D5NTV7)
T9 construct: Uncharacterized protein, Gallus gallus, GN = ZBTB26; source: endogenous, chicken bone marrow DC lysate

[10] = molecular target: T10, Extracellular serine/threonine protein kinase FAM20C isoform X1 (Gallus gallus, UniProt A0A3G2WC03)
T10 construct: Extracellular serine/threonine protein kinase FAM20C isoform X1, Gallus gallus; no GN field printed, the symbol stands in the name; source: endogenous, chicken bone marrow DC lysate

[11] = molecular target: T11, Voltage-dependent anion-selective channel protein 1 (Gallus gallus, UniProt E1BYN7)
T11 construct: Voltage-dependent anion-selective channel protein 1, Gallus gallus, GN = VDAC1; also called VDAC1; VDAC; source: endogenous, chicken bone marrow DC lysate

[12] = molecular target: T12, Collagen alpha-2(VI) chain (Gallus gallus (SPF chick), UniProt P15988)
T12 construct: Collagen alpha-2(VI) chain, Gallus gallus, GN = COL6A2; also called COL6A2; source: endogenous, chicken bone marrow DC lysate

[13] = molecular target: T13, UBX domain-containing protein 2B (Gallus gallus, UniProt A0A1D5P1A7)
T13 construct: UBX domain-containing protein 2B, Gallus gallus, GN = UBXN2B; also called UBXN2B; source: endogenous, chicken bone marrow DC lysate

[14] = molecular target: T14, RING-type E3 ubiquitin transferase (Gallus gallus (endogenous, immature …, UniProt A0A8V0YPN2))
T14 construct: RING-type E3 ubiquitin transferase, Gallus gallus, GN = UHRF2; also called UHRF2; source: endogenous, chicken bone marrow DC lysate

[15] = molecular target: T15, Uncharacterized protein GN = RAP1A (Gallus gallus (SPF chick), UniProt F1NSA8)
T15 construct: Uncharacterized protein, Gallus gallus, GN = RAP1A; source: endogenous, chicken bone marrow DC lysate

[16] = molecular target: T16, Uncharacterized protein GN = GPC2 (Gallus gallus (SPF chick), UniProt A0A8V0ZXK1)
T16 construct: Uncharacterized protein, Gallus gallus, GN = GPC2; source: endogenous, chicken bone marrow DC lysate

[17] = molecular target: T17, RanGAP1_C domain-containing protein (Gallus gallus, UniProt A0A8V0YG17)
T17 construct: RanGAP1_C domain-containing protein, Gallus gallus, GN = RANGAP1; source: endogenous, chicken bone marrow DC lysate

[18] = molecular target: T18, zf-C2H2_7 domain-containing protein (Gallus gallus (SPF chick), UniProt A0A8V0Z1I9)
T18 construct: zf-C2H2_7 domain-containing protein, Gallus gallus, GN = PRR35; also called PRR35; source: endogenous, chicken bone marrow DC lysate

Measured: binding result

T13 sequence (Q5ZLK2 whole entry, the tested form may be a part): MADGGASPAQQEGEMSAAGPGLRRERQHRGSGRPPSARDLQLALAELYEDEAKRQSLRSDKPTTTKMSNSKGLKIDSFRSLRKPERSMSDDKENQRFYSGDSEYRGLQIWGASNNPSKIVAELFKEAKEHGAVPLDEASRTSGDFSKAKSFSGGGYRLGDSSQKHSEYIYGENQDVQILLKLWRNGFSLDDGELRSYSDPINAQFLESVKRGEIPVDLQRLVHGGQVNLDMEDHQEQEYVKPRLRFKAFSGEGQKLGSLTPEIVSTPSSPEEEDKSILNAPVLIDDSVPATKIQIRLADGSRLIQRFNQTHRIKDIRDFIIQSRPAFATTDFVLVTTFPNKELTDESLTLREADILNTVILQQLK
T18 sequence (A0A8V0Z1I9 entry or part of it): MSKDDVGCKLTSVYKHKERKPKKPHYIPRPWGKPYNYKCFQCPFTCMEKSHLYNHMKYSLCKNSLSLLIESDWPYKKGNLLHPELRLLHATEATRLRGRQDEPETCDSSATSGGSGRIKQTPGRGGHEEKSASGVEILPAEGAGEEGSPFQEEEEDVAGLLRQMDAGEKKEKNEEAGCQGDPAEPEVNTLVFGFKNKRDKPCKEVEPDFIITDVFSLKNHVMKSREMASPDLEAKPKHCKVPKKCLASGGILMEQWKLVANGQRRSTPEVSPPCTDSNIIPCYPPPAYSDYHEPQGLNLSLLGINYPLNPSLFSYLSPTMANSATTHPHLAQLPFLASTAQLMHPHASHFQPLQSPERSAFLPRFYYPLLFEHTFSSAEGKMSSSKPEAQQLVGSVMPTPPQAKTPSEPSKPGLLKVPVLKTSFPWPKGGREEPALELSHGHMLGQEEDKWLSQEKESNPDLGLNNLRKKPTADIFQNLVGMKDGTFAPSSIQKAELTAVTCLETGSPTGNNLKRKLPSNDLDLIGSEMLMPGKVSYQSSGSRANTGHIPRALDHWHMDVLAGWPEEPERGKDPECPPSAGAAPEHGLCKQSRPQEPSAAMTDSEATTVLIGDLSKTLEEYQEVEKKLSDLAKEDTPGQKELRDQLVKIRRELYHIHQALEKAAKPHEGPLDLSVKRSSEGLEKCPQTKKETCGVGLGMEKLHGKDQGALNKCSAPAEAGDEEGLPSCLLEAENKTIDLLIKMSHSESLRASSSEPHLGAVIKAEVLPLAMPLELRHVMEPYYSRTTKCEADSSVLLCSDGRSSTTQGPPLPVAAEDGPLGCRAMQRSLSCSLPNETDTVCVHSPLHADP
T1 sequence (Q1PRL4 whole entry): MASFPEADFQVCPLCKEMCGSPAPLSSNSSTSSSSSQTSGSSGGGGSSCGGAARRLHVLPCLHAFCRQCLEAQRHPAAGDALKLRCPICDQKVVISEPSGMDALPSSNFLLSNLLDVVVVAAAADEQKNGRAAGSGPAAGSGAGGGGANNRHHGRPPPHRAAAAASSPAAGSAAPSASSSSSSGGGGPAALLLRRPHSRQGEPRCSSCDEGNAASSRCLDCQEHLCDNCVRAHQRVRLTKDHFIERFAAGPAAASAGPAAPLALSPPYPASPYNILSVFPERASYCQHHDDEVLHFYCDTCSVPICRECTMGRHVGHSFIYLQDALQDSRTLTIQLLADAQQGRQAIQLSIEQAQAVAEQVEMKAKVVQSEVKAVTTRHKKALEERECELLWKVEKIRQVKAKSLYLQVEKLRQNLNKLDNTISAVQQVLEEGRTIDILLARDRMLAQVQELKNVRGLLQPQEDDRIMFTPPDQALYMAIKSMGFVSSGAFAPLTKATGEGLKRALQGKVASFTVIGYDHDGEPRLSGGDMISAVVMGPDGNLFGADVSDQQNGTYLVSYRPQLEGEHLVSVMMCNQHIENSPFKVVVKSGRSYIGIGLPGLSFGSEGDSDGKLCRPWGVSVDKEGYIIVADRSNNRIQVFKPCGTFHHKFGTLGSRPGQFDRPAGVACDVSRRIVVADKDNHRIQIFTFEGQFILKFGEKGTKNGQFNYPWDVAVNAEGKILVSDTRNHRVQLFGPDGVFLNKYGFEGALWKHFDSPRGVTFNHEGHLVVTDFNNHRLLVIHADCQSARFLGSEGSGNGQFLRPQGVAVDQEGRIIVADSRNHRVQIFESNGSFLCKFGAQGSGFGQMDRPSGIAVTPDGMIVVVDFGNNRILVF
T15 sequence (F1NSA8 entry or part of it): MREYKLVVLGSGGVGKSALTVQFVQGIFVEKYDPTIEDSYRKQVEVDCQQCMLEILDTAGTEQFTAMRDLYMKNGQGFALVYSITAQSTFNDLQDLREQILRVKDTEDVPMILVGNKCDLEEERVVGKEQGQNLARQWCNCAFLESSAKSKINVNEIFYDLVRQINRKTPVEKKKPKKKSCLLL
T5 sequence (P09102 23-515): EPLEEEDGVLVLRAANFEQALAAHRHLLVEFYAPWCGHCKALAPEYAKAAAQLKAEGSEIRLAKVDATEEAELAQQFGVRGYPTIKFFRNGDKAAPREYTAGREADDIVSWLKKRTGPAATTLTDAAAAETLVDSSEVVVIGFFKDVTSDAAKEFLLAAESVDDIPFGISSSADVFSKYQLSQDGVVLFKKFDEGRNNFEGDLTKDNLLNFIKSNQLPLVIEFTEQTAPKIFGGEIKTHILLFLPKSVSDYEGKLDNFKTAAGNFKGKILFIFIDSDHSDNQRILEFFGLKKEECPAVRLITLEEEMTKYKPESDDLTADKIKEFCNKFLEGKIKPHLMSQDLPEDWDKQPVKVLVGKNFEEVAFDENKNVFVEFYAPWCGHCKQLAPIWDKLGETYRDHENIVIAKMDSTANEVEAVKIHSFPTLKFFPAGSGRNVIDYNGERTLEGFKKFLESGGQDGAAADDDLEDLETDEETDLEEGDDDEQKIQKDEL
T2 sequence (A0A1D5PNH9 entry or part of it): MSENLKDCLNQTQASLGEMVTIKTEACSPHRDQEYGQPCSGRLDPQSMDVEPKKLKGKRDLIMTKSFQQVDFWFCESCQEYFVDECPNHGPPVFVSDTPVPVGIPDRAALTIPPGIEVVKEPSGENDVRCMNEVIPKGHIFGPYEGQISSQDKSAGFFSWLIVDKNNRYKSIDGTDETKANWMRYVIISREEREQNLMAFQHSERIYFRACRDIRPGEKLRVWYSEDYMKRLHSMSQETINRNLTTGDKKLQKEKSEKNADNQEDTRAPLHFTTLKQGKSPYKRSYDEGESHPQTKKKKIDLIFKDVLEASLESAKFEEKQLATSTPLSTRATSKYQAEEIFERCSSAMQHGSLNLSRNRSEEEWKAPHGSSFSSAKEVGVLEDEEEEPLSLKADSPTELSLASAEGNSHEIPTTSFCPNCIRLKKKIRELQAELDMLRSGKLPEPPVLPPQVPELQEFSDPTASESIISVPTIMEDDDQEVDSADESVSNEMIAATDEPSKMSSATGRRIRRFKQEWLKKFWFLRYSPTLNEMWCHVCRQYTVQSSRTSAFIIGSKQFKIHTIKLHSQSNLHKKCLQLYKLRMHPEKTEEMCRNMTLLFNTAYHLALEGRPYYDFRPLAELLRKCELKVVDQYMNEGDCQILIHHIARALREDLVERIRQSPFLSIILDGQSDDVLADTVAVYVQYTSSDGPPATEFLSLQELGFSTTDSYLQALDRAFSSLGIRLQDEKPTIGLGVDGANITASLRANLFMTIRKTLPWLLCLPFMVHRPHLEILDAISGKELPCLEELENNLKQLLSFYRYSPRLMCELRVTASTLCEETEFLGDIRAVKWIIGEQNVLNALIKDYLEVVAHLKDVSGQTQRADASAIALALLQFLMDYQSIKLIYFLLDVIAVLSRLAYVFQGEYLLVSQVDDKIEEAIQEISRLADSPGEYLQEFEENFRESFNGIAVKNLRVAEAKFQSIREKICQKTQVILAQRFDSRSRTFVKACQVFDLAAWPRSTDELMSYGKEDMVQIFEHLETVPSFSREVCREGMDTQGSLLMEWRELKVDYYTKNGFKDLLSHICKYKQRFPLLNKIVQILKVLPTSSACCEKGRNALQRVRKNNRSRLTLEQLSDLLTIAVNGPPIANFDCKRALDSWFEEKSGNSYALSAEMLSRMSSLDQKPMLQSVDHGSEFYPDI
T8 sequence (F1P266 entry or part of it): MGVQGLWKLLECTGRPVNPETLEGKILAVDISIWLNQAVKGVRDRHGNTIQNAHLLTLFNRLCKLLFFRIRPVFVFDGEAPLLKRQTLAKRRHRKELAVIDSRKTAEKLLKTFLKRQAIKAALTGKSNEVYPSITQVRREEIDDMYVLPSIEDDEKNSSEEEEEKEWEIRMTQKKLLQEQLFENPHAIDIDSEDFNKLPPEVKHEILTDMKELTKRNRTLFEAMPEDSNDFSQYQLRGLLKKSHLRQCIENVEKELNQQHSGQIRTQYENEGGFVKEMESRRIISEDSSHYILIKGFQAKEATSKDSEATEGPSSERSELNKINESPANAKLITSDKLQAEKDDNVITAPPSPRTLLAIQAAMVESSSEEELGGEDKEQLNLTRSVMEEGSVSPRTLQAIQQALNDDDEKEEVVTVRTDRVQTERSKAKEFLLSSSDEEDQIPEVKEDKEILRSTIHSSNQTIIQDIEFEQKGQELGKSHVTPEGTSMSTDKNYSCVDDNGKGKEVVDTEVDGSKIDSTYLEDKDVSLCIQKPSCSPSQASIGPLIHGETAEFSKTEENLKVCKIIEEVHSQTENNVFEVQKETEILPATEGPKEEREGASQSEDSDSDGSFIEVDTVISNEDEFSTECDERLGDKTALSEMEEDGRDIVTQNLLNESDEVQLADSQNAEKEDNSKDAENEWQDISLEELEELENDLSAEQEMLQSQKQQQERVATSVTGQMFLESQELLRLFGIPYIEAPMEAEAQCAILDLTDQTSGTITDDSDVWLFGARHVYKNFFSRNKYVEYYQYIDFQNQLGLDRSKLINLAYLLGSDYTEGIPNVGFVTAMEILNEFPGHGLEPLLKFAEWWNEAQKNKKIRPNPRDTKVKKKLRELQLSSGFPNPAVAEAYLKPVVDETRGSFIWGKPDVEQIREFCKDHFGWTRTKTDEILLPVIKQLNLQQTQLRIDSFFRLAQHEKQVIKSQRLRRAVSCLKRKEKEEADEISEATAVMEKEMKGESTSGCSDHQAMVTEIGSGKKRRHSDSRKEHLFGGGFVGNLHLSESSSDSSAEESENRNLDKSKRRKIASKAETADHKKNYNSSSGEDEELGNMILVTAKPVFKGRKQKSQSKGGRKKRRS

B1: GST-VHH-54 (VHH)
VHH: QVQLVESGGGLVQPGGSLTLSCAASGFTFSKYPMTWVRQAPGKGLEWVSTITSGGTTTYADSVKGRFTISRDNAKDTLYLQMNSLKPEDTAIYYCAELGLPPGGQGTQVTVSS
notes: VHH from a non-immunised alpaca library; VHH gene of phage-54 fused with the GST gene in pGEX-4T-1; also called VVH-54; VVH54; source: expressed from pGEX-4T-1 and purified
binds: [1] | [2] | [3] | [4] | [5] | [6] | [7] | [8] | [9] | [10]

B2: GST-VHH-74 (VHH)
VHH: QVQLVESGGGLVQEGGSLRLSCVVSGSRDSINAMGWYRQAPGKQRELVATVAGVGSTNYAASVKGRFSISMDNAKNTAYLQMNSLKPEDTAVYYCVADLRGSDRWLWAQGTQVTVSA
notes: VHH from a non-immunised alpaca library; VHH gene of phage-74 fused with the GST gene in pGEX-4T-1; also called VVH-74; source: expressed from pGEX-4T-1 and purified
binds: [11] | [12] | [13] | [14] | [15] | [16] | [17] | [18]

— PMC9284966, “Construction of a T7 phage display nanobody library for bio-panning and identification of chicken dendritic cell-specific binding nanobodies” (Scientific Reports, 2022)
